Target: T1, D-proline reductase PrdA protein derived from Peptoclostridium difficile 630, with 6X histidine tags at both termini (H6-prdA-H6)
T1 chain: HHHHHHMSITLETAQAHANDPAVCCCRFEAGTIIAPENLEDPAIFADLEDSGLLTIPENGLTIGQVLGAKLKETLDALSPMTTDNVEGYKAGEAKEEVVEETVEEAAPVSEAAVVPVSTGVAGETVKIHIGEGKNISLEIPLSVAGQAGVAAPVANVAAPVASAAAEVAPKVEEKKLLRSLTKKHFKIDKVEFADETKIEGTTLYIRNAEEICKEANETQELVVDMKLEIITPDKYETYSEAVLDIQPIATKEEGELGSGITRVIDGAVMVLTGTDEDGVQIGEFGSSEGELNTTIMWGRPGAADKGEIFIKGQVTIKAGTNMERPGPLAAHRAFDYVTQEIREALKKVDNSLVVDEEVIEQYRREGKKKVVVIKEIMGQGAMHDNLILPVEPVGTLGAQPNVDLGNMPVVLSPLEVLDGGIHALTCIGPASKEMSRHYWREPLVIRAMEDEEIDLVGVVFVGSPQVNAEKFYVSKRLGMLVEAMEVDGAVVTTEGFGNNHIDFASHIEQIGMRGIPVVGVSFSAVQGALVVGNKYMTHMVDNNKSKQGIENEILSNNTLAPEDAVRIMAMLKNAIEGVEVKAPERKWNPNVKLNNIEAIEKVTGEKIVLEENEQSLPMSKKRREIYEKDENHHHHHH

B1: D-proline reductase PrdB protein derived from Peptoclostridium difficile 630, with a 6X histidine tag at the carboxyl terminus (prdB-H6) (protein)
chain: MSLTTVQGLQSEIFVPITPPPVWTPVTKELKDMTIALATAAGVHLKSDKRFNLAGDTTFRAIPNTATVDEMMVSHGGYDNGDVNKDINCMFPIDRLHELAAEGFIKGVAPMHYAFMGGGGNQHVFTEETGPAIAAKLKEEGVDGVVMTAGGTCHRTAVIVQRAIEEAGIPTIIIAALPPVVRQNGTPRAVAPLVPMGANAGEPHNIEMQTHILRDTLEQLVAIPSAGKIVPLPYEYKAHVHHHHHH
self-cleavage of PrdA protein (Western blot of lysates of co-expressing E. coli): PrdH protein and PrdB protein must exist at the same time to induce self-cleavage of PrdA protein

Source: US20210317419
